Experimental data taken from US20090022714A1 (published 2009).
Residue numbers refer to the chain shown, from its start.

B1: human anti-KDR (VEGFR-2) Fab D1F7 (Fab, V domains shown)
VH: EVQLVQSGAEVKKPGASVKVSCKASGGTFSSYAISWVRQAPGQGLEWMGGIIPIFGTANYAQKFQGRVTFTADKSTSTAYMELRSLRSDDTAVYYCARGYDYYDSSGVASPFDYWGQGTLVTVSS
VL: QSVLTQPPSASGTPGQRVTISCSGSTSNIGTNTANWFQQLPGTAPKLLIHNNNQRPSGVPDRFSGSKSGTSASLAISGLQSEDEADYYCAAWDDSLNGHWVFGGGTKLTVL
notes: soluble Fab from E. coli HB2151; also called DIF7; Hu-1F7 Fab
B2: human anti-KDR (VEGFR-2) Fab D2C6 (Fab, V domains shown)
VH: EVQLVQSGGGLVKPGGSLRLSCAASGFTFSSYSMNWVRQAPGKGLEWVSSISSSSSYIYYADSVKGRFTISRDNAKNSLYLQMNSLRAEDTAVYYCARVTDAFDIWGQGTMVTVSS
VL: EIVMTQSPATLSLSPGERATLSCRASQSVSSYLAWYQQKPGQAPRLLIYDSSNRATGIPARFSGSGSGTDFTLTISSLEPEDFATYYCLQHNTFPPTFGQGTKVEIK
notes: soluble Fab from E. coli HB2151; also called Hu-2C6 Fab
B3: human anti-KDR (VEGFR-2) Fab D1H4 (Fab, V domains shown)
VH: B2 VH
VL: QSALTQPASLSGSPGQSITISCAGTTTDLTYYDLVSWYQQHPGQAPKLVIYDGNKRPSGVSNRFSGSKSGNTASLTISGLQAEDEADYYCNSYVSSRFYVFGTGTKVTVL
notes: soluble Fab from E. coli HB2151; also called Hu-1H4 Fab
B4: human anti-KDR (VEGFR-2) Fab D2H2 (Fab, V domains shown)
VH: B2 VH with N77D
VL: DIQLTQSPSSVSASVGDRVTITCRASQGISSRLAWYQQKPGKAPKLLIYAASSLQTGVPSRFSGSGSGTDFTLTISSLQPEDFATYYCQQANRFPPTFGPGTKVDIK
notes: soluble Fab from E. coli HB2151; also called Hu-2H2 Fab
B5: human Fab 1121 (Fab, V domains shown)
VH: B2 VH
VL: DIQMTQSPSSVSASIGDRVTITCRASQGIDNWLGWYQQKPGKAPKLLIYDASNLDTGVPSRFSGSGSGTYFTLTISSLQAEDFAVYFCQQAKAFPPTFGGGTKVDIK
notes: from the second library
B6: human Fab SC7 (Fab, V domains shown)
VH: B2 VH
VL: DIQLTQSPSSVSASVGDSVTITCRASQDISSWLAWYQQKPGEAPKLLIYAASLLQSGVPSRFSGSGSGTDFALTINSLQPEDFATYFCQQADSFPPTFGQGTRLEIK
notes: from the second library
B7: human Fab SF2 (Fab, V domains shown)
VH: B2 VH
VL: QSVVTQPPSVSGAPGQRVTISCTGSSSNIGTGYDVHWYQQVPGSAPKLLIYAYTNRPSGVPDRFSGSKSGMSASLVIGGLQAEDEADYYCQSFDDSLNGLVFGPGTSVTVL
notes: from the second library
B8: human Fab SD2 (Fab, V domains shown)
VH: B2 VH
VL: DIELTQSPSSVSASVGDRVTLTCRASQSIKRWLAWYQQKPGKAPRLLIYAASTLQSGVPSRFSGGGSGTDFTLTINSLQPEDFAIYYCQQANSFPPTFGPGTKVDIK
notes: from the second library
B9: human Fab SA1 (Fab, V domains shown)
VH: B2 VH
VL: QSVVTQPPSVSGAPGQRVTISCTGSHSNFGAGTDVHWYQHLPGTAPRLLIHGDSNRPSGVPDRFSGSRSGTSASLAITGLRVEDEADYYCQSYDYGLRGWVFGGGTKLTVL
notes: from the second library (D2C6 heavy chain with shuffled light chains)
B10: human Fab SB5 (Fab, V domains shown)
VH: B2 VH
VL: QAVLTQPSSVSGAPGQRVTISCTGQSSNIGADYDVHWYQQFPGTAPKLLIYGHNNRPSGVPDRFSGSKSGTSVSLVISGLQAEDEADYYCQSYDSSLSGLVFGGGTKVTVL
notes: from the second library
B11: human Fab SA3 (Fab, V domains shown)
VH: B2 VH
VL: DVVMTQSPSSLSASVGDRVTITCRASQNINNYLNWYQQKPGKAPKLLIYAASTLQSGVPSRFSGSGSGTDFTLTITSLQPEDSATYYCQQYSRYPPTFGGGTKVEIT
notes: from the second library
B12: human Fab SD5 (Fab, V domains shown)
VH: B2 VH
VL: QSVVTQPPSVSGAPGQRVTISCSGSRSNIGAHYEVQWYQQFPGAAPKLLIYGDTNRPSGVPDRFSASHSGTSASLAITGLQAEDEADYYCQSYDTSLRGPVFGGGTKLTVL
notes: from the second library
B13: human Fab SB10 (Fab, V domains shown)
VH: B2 VH
VL: QSALTQPASVSGSRGQSITLSCTGSSTDVGNYNYISWYQQHPGQAPKLLIYDVTSRPSGVSDRFSGSKSGLTASLTISGLQPEDEADYYCNSYSATDTLVFGGGTKLTVL
notes: from the second library
B14: human Fab SF7 (Fab, V domains shown)
VH: B2 VH
VL: B9 VL with V4L, S54T, N55H, P61A, T71A
notes: from the second library

Target: human KDR (VEGFR-2), cell surface-expressed (HUVEC) (human, UniProt P35968 20-1356)
Sequence (P35968 20-1356): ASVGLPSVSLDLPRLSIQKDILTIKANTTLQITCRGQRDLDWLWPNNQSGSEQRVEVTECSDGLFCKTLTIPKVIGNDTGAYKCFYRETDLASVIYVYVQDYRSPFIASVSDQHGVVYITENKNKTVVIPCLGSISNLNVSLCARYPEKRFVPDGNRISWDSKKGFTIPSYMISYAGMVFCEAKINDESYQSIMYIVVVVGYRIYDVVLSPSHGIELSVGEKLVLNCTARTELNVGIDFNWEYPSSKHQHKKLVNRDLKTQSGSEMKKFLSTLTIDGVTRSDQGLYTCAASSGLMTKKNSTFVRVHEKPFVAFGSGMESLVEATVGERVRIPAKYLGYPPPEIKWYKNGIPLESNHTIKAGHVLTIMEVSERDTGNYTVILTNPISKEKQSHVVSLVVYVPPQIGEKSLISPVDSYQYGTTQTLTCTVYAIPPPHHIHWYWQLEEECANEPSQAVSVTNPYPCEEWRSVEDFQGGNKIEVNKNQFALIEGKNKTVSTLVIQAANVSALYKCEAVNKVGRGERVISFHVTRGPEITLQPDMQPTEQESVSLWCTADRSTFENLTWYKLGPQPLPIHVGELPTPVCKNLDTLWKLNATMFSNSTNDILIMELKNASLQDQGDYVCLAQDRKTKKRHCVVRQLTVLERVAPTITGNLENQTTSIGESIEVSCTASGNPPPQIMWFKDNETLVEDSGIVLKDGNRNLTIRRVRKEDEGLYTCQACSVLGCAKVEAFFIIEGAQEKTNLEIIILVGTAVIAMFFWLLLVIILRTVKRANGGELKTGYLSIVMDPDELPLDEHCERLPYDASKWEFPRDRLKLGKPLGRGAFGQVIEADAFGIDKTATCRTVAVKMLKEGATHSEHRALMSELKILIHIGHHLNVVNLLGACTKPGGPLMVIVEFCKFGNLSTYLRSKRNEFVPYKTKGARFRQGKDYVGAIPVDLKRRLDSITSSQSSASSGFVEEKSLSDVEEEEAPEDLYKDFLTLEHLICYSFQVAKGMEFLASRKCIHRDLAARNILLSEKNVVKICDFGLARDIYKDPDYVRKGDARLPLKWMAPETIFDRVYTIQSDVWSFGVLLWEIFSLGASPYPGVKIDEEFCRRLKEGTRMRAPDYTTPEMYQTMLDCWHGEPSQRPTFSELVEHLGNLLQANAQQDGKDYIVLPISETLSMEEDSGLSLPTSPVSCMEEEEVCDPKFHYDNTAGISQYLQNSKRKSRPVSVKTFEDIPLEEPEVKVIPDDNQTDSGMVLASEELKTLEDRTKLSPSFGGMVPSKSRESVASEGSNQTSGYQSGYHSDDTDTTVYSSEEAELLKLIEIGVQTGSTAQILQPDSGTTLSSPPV
Assay: cell-based or functional assay

| EC50, inhibition of VEGF-stimulated [3H]-TdR incorporation in HUVEC [nM] | Binder |
| --- | --- |
| ~15 | B1 |
| ~0.5 | B2 |
| ~0.5 | B3 |
| ~0.8 | B4 |

Target: T1, soluble fusion protein Flk-1-AP (murine, UniProt P35918 20-762)
T1 construct: expressed in NIH 3T3; not shown: alkaline phosphatase (AP)
T1 sequence (P35918 20-762): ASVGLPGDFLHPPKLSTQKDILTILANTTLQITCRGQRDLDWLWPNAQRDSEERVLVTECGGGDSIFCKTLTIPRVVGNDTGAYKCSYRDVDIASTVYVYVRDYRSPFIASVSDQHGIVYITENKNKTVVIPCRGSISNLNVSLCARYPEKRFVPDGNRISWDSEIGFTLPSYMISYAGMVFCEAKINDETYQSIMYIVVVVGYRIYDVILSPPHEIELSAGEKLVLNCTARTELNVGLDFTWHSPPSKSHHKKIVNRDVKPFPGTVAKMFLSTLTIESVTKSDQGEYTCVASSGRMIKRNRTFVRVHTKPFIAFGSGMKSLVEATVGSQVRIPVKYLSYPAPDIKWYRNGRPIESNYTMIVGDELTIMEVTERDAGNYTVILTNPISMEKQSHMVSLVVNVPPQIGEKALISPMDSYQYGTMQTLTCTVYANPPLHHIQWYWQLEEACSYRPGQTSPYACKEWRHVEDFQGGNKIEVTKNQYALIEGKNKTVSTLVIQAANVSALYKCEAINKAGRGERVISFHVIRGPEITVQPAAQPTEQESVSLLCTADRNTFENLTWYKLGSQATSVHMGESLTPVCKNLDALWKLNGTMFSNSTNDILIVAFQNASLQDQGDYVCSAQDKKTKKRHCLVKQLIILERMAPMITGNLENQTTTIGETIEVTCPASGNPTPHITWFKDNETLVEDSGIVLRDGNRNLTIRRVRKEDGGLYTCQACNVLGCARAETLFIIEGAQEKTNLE
Assay: ELISA on captured Flk-1-AP

| binding result | Binder |
| --- | --- |
| no binding | B2 |
| no binding | B3 |
| no binding | B4 |

Target: T2, soluble fusion protein KDR (VEGFR-2)-AP (human, UniProt P35968 20-764)
T2 construct: extracellular domain; expressed in NIH 3T3 cells; also called KDR-AP; KDR (VEGFR-2)-alkaline phosphatase fusion protein; not shown: human placental alkaline phosphatase (AP), vector AP-Tag
T2 sequence (P35968 20-764): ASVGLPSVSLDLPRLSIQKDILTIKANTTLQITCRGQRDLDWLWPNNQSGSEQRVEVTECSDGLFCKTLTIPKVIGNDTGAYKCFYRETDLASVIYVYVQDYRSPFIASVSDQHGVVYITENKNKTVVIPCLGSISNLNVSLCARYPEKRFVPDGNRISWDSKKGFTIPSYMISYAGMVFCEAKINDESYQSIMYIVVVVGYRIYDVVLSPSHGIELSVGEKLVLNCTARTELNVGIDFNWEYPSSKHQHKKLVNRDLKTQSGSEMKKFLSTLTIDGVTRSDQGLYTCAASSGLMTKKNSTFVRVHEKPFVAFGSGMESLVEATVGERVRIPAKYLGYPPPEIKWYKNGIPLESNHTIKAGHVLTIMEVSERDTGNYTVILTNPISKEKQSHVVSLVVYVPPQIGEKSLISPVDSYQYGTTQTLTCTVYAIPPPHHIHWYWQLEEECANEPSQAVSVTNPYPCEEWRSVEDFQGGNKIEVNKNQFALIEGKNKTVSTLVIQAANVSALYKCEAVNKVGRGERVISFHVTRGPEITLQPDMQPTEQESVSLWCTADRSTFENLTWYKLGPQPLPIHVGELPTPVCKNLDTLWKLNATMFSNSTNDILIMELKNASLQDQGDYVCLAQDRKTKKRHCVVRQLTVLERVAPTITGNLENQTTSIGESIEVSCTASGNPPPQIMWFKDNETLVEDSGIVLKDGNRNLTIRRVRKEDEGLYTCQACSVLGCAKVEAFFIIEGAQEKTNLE
Assay: BIAcore, KDR-AP immobilized
Procedure: The binding kinetics of soluble Fab proteins to KDR (VEGFR-2) were measured by surface plasmon resonance using a BIAcore biosensor (Pharmacia Biosensor). […] Sensorgrams were obtained at each concentration and were evaluated using a program, BIA Evaluation 2.0, to determine the rate constants kon and koff Kd was calculated from the ratio of rate constants koff/kon.

| Kd [nM] | koff [s⁻¹] | kon [M⁻¹ s⁻¹] | Binder |
| --- | --- | --- | --- |
| 45.2 | 0.00187 | 41400 | B1 |
| 1.97 | 0.000538 | 273000 | B2 |
| 2.76 | 0.000153 | 55500 | B3 |
| 3.93 | 0.000487 | 124000 | B4 |

Target: T1, soluble fusion protein Flk-1-AP
Assay: blocking of VEGF binding to Flk-1

| IC50 [nM] | Binder |
| --- | --- |
| ~15 | B1 |

Target: T2, soluble fusion protein KDR (VEGFR-2)-AP
Assay: competitive ELISA: KDR-AP binding to immobilized VEGF165
Procedure: In a direct binding assay, various amounts of soluble Fab proteins were added to KDR (VEGFR-2)-coated 96-well Maxi-sorp microtiter plates and incubated at RT for 1 h, after which the plates were washed 3 times with PBST. The plates were then incubated at RT for 1 h with 100 Φl of a rabbit anti-human Fab antibody-HRP conjugate (Jackson ImmunoResearch Laboratory Inc., West Grove, Pa.). The plates were washed and developed following the procedure described above for the phage ELISA. […] The mixtures were then transferred to 96-well microtiter plates precoated with VEGF₁₆₅ (200 ng/well) and incubated at RT for an additional 2 h, after which the plates were washed 5 times and the substrate for AP (p-nitrophenyl phosphate, Sigma) was added. Absorbance at 405 nm was measured to quantify the bound KDR (VEGFR-2)-AP molecules (8).

| IC50 [nM] | Binder |
| --- | --- |
| ~20 | B1 |
| ~2 | B2 |
| ~2 | B3 |
| ~2 | B4 |

Target: human KDR (VEGFR-2), construct not stated (human, UniProt P35968 20-764, limits assumed)
Sequence (P35968 20-764 limits assumed): as the sequence (P35968 20-764) above
Assay: selection from second Fab phage library

| binding result | Binder |
| --- | --- |
| binds | B5 |
| binds | B6 |
| binds | B7 |
| binds | B8 |
| binds | B9 |
| binds | B10 |
| binds | B11 |
| binds | B12 |
| binds | B13 |
| binds | B14 |
